Results: US20090062197A1 (FULCRUM SP, published 2009)
Where a chain is given by its changes, count along the chain named. Names may count otherwise.

B1: SP1 variant HH2 (other)
chain: MHHATRTPKLVKHTLLTRFKDEITREQIDNYINDYTNLLDLIPSMKSFNWGTDLGMESAELNRGYTHAFESTFESKSGLQEYLDSAALAAFAEGFLPTLSQRLVIDYFLY
B2: SP1 variant Δ2-6 His2 (other)
chain: MHKLVKHTLLTRFKDEITREQIDNYINDYTNLLDLIPSMKSFNWGTDLGMESAELNRGYTHAFESTFESKSGLQEYLDSAALAAFAEGFLPTLSQRLVIDYFLY
B3: SP1 variant Cys2loop1RGd (Cys2 K18R Gly19) (other)
chain: MCATRTPKLVKHTLLTRFRGDEITREQIDNYINDYTNLLDLIPSMKSFNWGTDLGMESAELNRGYTHAFESTFESKSGLQEYLDSAALAAFAEGFLPTLSQRLVIDYFLY
B4: SP1 variant F106A 6XH2 (other)
chain: MHHHHHHATRTPKLVKHTLLTRFKDEITREQIDNYINDYTNLLDLIPSMKSFNWGTDLGMESAELNRGYTHAFESTFESKSGLQEYLDSAALAAFAEGFLPTLSQRLVIDYALY
B5: SP1 variant D38A S75A 6XH2 (other)
chain: B4 chain with D44A, S81A, A112F
B6: SP1 variant N31A T34A 6XH2 (other)
chain: B4 chain with N37A, T40A, A112F
B7: 6HSP1 (six histidine N-terminal tagged SP1) (other)
chain: B4 chain with A112F
notes: also called 6H2; SP1 6H
B8: SP1 variant S73A S75A 6XH2 (other)
chain: B4 chain with S79A, S81A, A112F
B9: CRGD SP1 (tumor recognition peptide CRGD inserted into the SP1 N-terminus) (other)
chain: MCRGDATRTPKLVKHTLLTRFKDEITREQIDNYINDYTNLLDLIPSMKSFNWGTDLGMESAELNRGYTHAFESTFESKSGLQEYLDSAALAAFAEGFLPTLSQRLVIDYFLY
notes: also called CRGD2
B10: RGDC SP1 (tumor recognition peptide RGDC inserted into the SP1 N-terminus) (other)
chain: B9 chain with C2R, R3G, G4D, D5C
notes: also called RGDC2
B11: SP1 variant Δ2-6 I40C (other)
chain: MKLVKHTLLTRFKDEITREQIDNYINDYTNLLDLCPSMKSFNWGTDLGMESAELNRGYTHAFESTFESKSGLQEYLDSAALAAFAEGFLPTLSQRLVIDYFLY
B12: SP1 variant Δ2-7 Cys2 (other)
chain: B11 chain with K2C, C35I
B13: SP1 variant Δ2-6 E72C (other)
chain: B11 chain with C35I, E67C
B14: ΔNSP1 (N-terminal deleted SP1, deletion of amino acids 2-6) (other)
chain: B11 chain with C35I
notes: Recombinant variant, E. coli; also called Δ2-6; SP1 ΔN
B15: SP1 variant Δ2-6 L81C (other)
chain: B11 chain with C35I, L76C
B16: SP1 (wild type, stress related SP1 protein from aspen) (other)
chain: MATRTPKLVKHTLLTRFKDEITREQIDNYINDYTNLLDLIPSMKSFNWGTDLGMESAELNRGYTHAFESTFESKSGLQEYLDSAALAAFAEGFLPTLSQRLVIDYFLY
notes: Full length SP1 without any additional tag, expressed in E. coli; it self-assembles into a dodecamer; also called WT; wild type SP1
B17: SP1 variant I30A (other)
chain: B16 chain with I30A
B18: SP1 variant E68A (other)
chain: B16 chain with E68A
B19: SP1 variant D38A (other)
chain: B16 chain with D38A
B20: SP1 variant Y108A (other)
chain: B16 chain with Y108A
B21: SP1 variant T34A (other)
chain: B16 chain with T34A
B22: SP1 variant D27A (other)
chain: B16 chain with D27A
B23: SP1 variant N31A (other)
chain: B16 chain with N31A
B24: SP1 variant R23A (other)
chain: B16 chain with R23A

What was measured:
[1] = target: the molecule itself; test: homo-oligomer complex formation, SDS-PAGE of unboiled samples
[2] = target: the molecule itself; test: homo-oligomer complex formation after inclusion body refolding, SDS-PAGE, proteinase digestion of monomers
Experimental: The pellet (FIG. 5a, lane 3) was discarded, and the supernatant was collected and dialyzed against buffer with 2 mM DTT for four days (FIG. 5a, lane 4).

[3] = target: B14; test: co-electro-elution of monomers, Ni-NTA pull-down, Proteinase K, SDS-PAGE
Experimental: Protein samples were prepared in SDS-sample buffer with excess ratio of SDS to the sample, either boiled (b) for 5 min, or without boiling (nb). […] The hetero-oligomeric complex was isolated on Ni-NTA Agarose beads (lanes 6 and 7).
The denatured proteins were then separated in preparative SDS-PAGE, and visualized by Coomassie blue staining. The monomeric forms of two recombinant protein bands were excised. […] In order to enhance the surface/volume ratio, the gel slices were pulverized using a pestle and mortar in the presence of liquid nitrogen.

[4] = target: the molecule itself; test: homo-oligomer complex formation after inclusion body refolding (footnote 10), SDS-PAGE, proteinase digestion of monomers
Text: Complex assembly was confirmed by eliminating the monomeric forms using proteinase digestion.

Binder	binding result [1]	also measured
B1	binds	
B2	binds	
B3		binding result [2]: binds
B4	binds	
B5	binds	
B6	binds	
B7	binds	binding result [3]: binds
B8	binds	
B9	binds	
B10	binds	
B11	binds	
B12	binds	
B13		binding result [4]: binds
B14	binds	
B15		binding result [2]: binds
B16	binds	
B17	binds	
B18	binds	
B19	binds	
B20	binds	
B21	binds	
B22	binds	
B23	binds	
B24	binds	
